Data taken from patent publication US20040115738A1 (INNATE PHARMA, published 2004).

Experiments:
[1] = target: T1, FcεRIγ (UniProt P30273 19-86); assay: co-immunoprecipitation (data not shown)
T1 construct: Endogenous protein in NK cell lysates; also called FcεFRIγ (as misprinted)
T1 sequence (looked up): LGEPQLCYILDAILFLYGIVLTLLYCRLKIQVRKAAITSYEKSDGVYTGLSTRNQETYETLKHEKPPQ

[2] = target: T2, DAP12 (UniProt O43914 22-113); assay: co-immunoprecipitation (data not shown)
T2 construct: Endogenous protein in NK cell lysates
T2 sequence (O43914 22-113 limits assumed): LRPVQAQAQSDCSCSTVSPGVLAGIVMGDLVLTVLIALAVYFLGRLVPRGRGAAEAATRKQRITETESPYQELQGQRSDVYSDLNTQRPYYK

binding result [1]: no binding
binding result [2]: no binding
B1: NKp80 (receptor)
chain: MQDEERYMTLNVQSKKRSSAQTSCLTFKDYSVTLHWYKILLGISGTVNGILTLTLISLILLVSCGVLLKCQKGSCSNATQYEDTGDLKVNNGTRRNISNKDLCASRSADQTVLCQSEWLKYQGKCYWFSNEMKSWSDSYVYCLERKSHLLIIHDQLEMAFIQKNLRQLNYVWIGLNFTSLKMTWTWVDGSPIDSKIFFIKGPAKENSCAAIKESKIFSETCSSVFKWICQY
notes: 231 aa type II transmembrane protein; On the NK cell surface it is a dimer (80 kD non-reduced, about 40 kD reduced); Tested on human NK cells, in lysates of 125I-labeled NK cells, and on 293T cells transfected with VR1012-ML; also called MA152-reactive molecule; MA152 mAb-reactive molecule
